B1: TOR1AIP2 (parent)
chain: YKYCDHENAAFKDVALVLTVLLEE
B2: SLC19A2 (parent)
chain: FASLRPSEPFLTPYLLGPDKNLTE
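Further: lentivirally expressed fusions sorted by FACS into six bins by GFP to DsRed ratio, PSI derived from sequencing read proportions per bin multiplied by bin number.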

Variants of: B1
Assay: protein stability index of a GFP-peptide fusion (GPS, HEK-293T) (PSI 1-6); higher = more stable
Conditions: c terminus: a fixed tail appended
For YKYCLHENAAFKDVALVLTVLLEE [D5L], the protein stability index was 2.43.
Variant HKYCDHENAAFKDVALVLTVLLEE [Y1H] has a protein stability index of 1.04.
Work on LKYCDHENAAFKDVALVLTVLLEE [Y1L] yielded a protein stability index of 2.17.
With KKYCDHENAAFKDVALVLTVLLEE [Y1K] the protein stability index was 2.68.
Work on CKYCDHENAAFKDVALVLTVLLEE [Y1C] yielded a protein stability index of 2.66.
Work on TKYCDHENAAFKDVALVLTVLLEE [Y1T] yielded a protein stability index of 2.48.
Variant DKYCDHENAAFKDVALVLTVLLEE [Y1D] has a protein stability index of 1.03.
For RKYCDHENAAFKDVALVLTVLLEE [Y1R], the protein stability index was 2.28.
Variant NKYCDHENAAFKDVALVLTVLLEE [Y1N] has a protein stability index of 2.13.
In the case of PKYCDHENAAFKDVALVLTVLLEE [Y1P], the protein stability index is reported as 1.71.
YKYCDHENAAFDDVALVLTVLLEE [K12D] gave a protein stability index of 1.81.
Work on YKYCDHENAAFCDVALVLTVLLEE [K12C] yielded a protein stability index of 4.02.
Work on YKYCDHENAAFQDVALVLTVLLEE [K12Q] yielded a protein stability index of 3.33.
YKYCDHENAAFADVALVLTVLLEE [K12A] gave a protein stability index of 3.1.
YKYCDHENAAFYDVALVLTVLLEE [K12Y] gave a protein stability index of 2.97.
YKYCDHENAAFKDLALVLTVLLEE [V14L] gave a protein stability index of 4.94.
Work on YKYCDHENAAFKDRALVLTVLLEE [V14R] yielded a protein stability index of 1.54.
Work on YKYCDHENAAFKDCALVLTVLLEE [V14C] yielded a protein stability index of 1.65.
YKYCDHENAAFKDDALVLTVLLEE [V14D] gave a protein stability index of 1.46.
YKYCDHENAAFKDPALVLTVLLEE [V14P] showed a protein stability index of 1.88.
Variant YKYCDHENAAFKDTALVLTVLLEE [V14T] has a protein stability index of 1.
YKYCDHENAAFKDEALVLTVLLEE [V14E] showed a protein stability index of 1.57.
In the case of YKYCDHENAAFKDAALVLTVLLEE [V14A], the protein stability index is reported as 2.48.
With YKYCDHENAAFKDHALVLTVLLEE [V14H] the protein stability index was 1.4.
YKYCDHENAAFKDIALVLTVLLEE [V14I] gave a protein stability index of 2.17.
Work on YKYCDHENAAFKDKALVLTVLLEE [V14K] yielded a protein stability index of 2.12.
Work on YSYCDHENAAFKDVALVLTVLLEE [K2S] yielded a protein stability index of 2.14.
For YLYCDHENAAFKDVALVLTVLLEE [K2L], the protein stability index was 2.81.
With YDYCDHENAAFKDVALVLTVLLEE [K2D] the protein stability index was 2.03.
For YYYCDHENAAFKDVALVLTVLLEE [K2Y], the protein stability index was 2.95.
Work on YMYCDHENAAFKDVALVLTVLLEE [K2M] yielded a protein stability index of 1.96.
Variant YNYCDHENAAFKDVALVLTVLLEE [K2N] has a protein stability index of 1.99.
Variant YWYCDHENAAFKDVALVLTVLLEE [K2W] has a protein stability index of 1.98.

Variants of: B2
Assay: as above
Conditions: c terminus: a fixed tail appended
For FASLRPSEPFLTPYLLGPDKWLTE [N21W], the protein stability index was 2.31.
FASLRPSEPFLTPYLLGPDKDLTE [N21D] showed a protein stability index of 1.84.
Work on FASLRPSEPFLTPYLLGPDKGLTE [N21G] yielded a protein stability index of 1.52.
Work on FASLRPSEPFLTPYLLGPDKNLTR [E24R] yielded a protein stability index of 2.39.
FASLRPSEPFLTPYLLGPDKNLTS [E24S] gave a protein stability index of 1.94.
For FASLRPSEPFLTPYLLGPDKNLTY [E24Y], the protein stability index was 2.08.
With FASLRPSEPFLTPYLLGPDKNLTA [E24A] the protein stability index was 1.89.
Work on FASLRPSEPFLTPYLYGPDKNLTE [L16Y] yielded a protein stability index of 1.3.
With FASLRPSEPFLTPYLMGPDKNLTE [L16M] the protein stability index was 1.79.
FASLRPSEPFLTPYLNGPDKNLTE [L16N] gave a protein stability index of 2.12.
Variant AASLRPSEPFLTPYLLGPDKNLTE [F1A] has a protein stability index of 4.25.
Work on FASLRPSEPFLTPYLLGPDKNLFE [T23F] yielded a protein stability index of 1.3.
For FASLRPSEPFLTPYLLGPDKNLLE [T23L], the protein stability index was 1.64.
With FASLRPSEPFLTVYLLGPDKNLTE [P13V] the protein stability index was 2.02.
For FASLRPSEPFLTLYLLGPDKNLTE [P13L], the protein stability index was 2.14.
Variant FASLAPSEPFLTPYLLGPDKNLTE [R5A] has a protein stability index of 2.03.
FASLEPSEPFLTPYLLGPDKNLTE [R5E] showed a protein stability index of 2.58.
Variant FASLNPSEPFLTPYLLGPDKNLTE [R5N] has a protein stability index of 1.68.
For FASLRPSEPFLTPYLLGPHKNLTE [D19H], the protein stability index was 1.57.
Variant FASLRPSEPFLTPYLLGPQKNLTE [D19Q] has a protein stability index of 1.57.
For FISLRPSEPFLTPYLLGPDKNLTE [A2I], the protein stability index was 1.66.
FKSLRPSEPFLTPYLLGPDKNLTE [A2K] gave a protein stability index of 2.84.
FVSLRPSEPFLTPYLLGPDKNLTE [A2V] showed a protein stability index of 2.5.
Work on FASLRPSEEFLTPYLLGPDKNLTE [P9E] yielded a protein stability index of 1.82.
Work on FASLRPSEKFLTPYLLGPDKNLTE [P9K] yielded a protein stability index of 1.78.
For FASLRPSESFLTPYLLGPDKNLTE [P9S], the protein stability index was 1.61.
FASLRPSEWFLTPYLLGPDKNLTE [P9W] showed a protein stability index of 2.12.
With FASLRPSEPHLTPYLLGPDKNLTE [F10H] the protein stability index was 2.61.
Variant FASLRPSEPDLTPYLLGPDKNLTE [F10D] has a protein stability index of 3.28.
In the case of FASLRPSEPILTPYLLGPDKNLTE [F10I], the protein stability index is reported as 2.23.
In the case of FASLRPSEPTLTPYLLGPDKNLTE [F10T], the protein stability index is reported as 2.15.
Work on FASLRPSEPFLTPYHLGPDKNLTE [L15H] yielded a protein stability index of 1.55.
With FASLRPSEPFLTPYQLGPDKNLTE [L15Q] the protein stability index was 1.76.
FASLRPSEPFLTPYALGPDKNLTE [L15A] gave a protein stability index of 1.91.
FASLRPSEPFETPYLLGPDKNLTE [L11E] gave a protein stability index of 2.88.
In the case of FASLRPSEPFMTPYLLGPDKNLTE [L11M], the protein stability index is reported as 2.18.
Variant FASLRPSEPFSTPYLLGPDKNLTE [L11S] has a protein stability index of 1.91.
Work on FASSRPSEPFLTPYLLGPDKNLTE [L4S] yielded a protein stability index of 1.61.
For FASLRPSEPFLTPYLLQPDKNLTE [G17Q], the protein stability index was 2.23.
With FASLRPSEPFLTPYLLKPDKNLTE [G17K] the protein stability index was 2.23.
Work on FASLRPSEPFLTPYLLLPDKNLTE [G17L] yielded a protein stability index of 2.22.
For FASLRPSKPFLTPYLLGPDKNLTE [E8K], the protein stability index was 2.1.
Work on FASLRPSLPFLTPYLLGPDKNLTE [E8L] yielded a protein stability index of 1.26.
Work on FASLRPSEPFLTPYLLGPDINLTE [K20I] yielded a protein stability index of 2.44.
In the case of FASLRPSEPFLTPYLLGPDANLTE [K20A], the protein stability index is reported as 2.14.
In the case of FASLRPSEPFLTPYLLGPDENLTE [K20E], the protein stability index is reported as 1.94.
Work on FASLRPSEPFLTPYLLGPDFNLTE [K20F] yielded a protein stability index of 1.62.
In the case of FASLRPSEPFLTPYLLGFDKNLTE [P18F], the protein stability index is reported as 1.54.
FASLRPSEPFLTPYLLGKDKNLTE [P18K] showed a protein stability index of 2.12.
In the case of FASLRPSEPFLTPYLLGEDKNLTE [P18E], the protein stability index is reported as 2.27.
Variant FASLRPSEPFLTPYLLGDDKNLTE [P18D] has a protein stability index of 2.
With FALLRPSEPFLTPYLLGPDKNLTE [S3L] the protein stability index was 1.76.
FASLRPSEPFLTPGLLGPDKNLTE [Y14G] gave a protein stability index of 2.18.
FASLRPSEPFLTPALLGPDKNLTE [Y14A] showed a protein stability index of 2.42.
For FASLRPKEPFLTPYLLGPDKNLTE [S7K], the protein stability index was 1.98.
Variant FASLRPIEPFLTPYLLGPDKNLTE [S7I] has a protein stability index of 1.5.
With FASLRPSEPFLTPYLLGPDKNPTE [L22P] the protein stability index was 1.86.
Work on FASLRPSEPFLTPYLLGPDKNDTE [L22D] yielded a protein stability index of 2.65.
FASLRPSEPFLTPYLLGPDKNKTE [L22K] gave a protein stability index of 2.34.
FASLRPSEPFLTPYLLGPDKNETE [L22E] gave a protein stability index of 2.03.
Variant FASLRRSEPFLTPYLLGPDKNLTE [P6R] has a protein stability index of 2.12.

— the supplement of paper PMC10567573
